Assays:
[1] = molecular target: Centruroides sculpturatus whole venom (toxic components CsEM1a and CsEd, ~10% of the venom); assay: cell-based or functional assay
[2] = molecular target: CsEM1a toxin from Centruroides sculpturatus venom (Centruroides sculpturatus); assay: SPR (Biacore X), toxin on CM5 chip, scFv injected, 25 C, Langmuir 1:1
[3] = molecular target: CsEd toxin from Centruroides sculpturatus venom (Centruroides sculpturatus); assay: as above

CsEM1a toxin from Centruroides sculpturatus venom (Centruroides sculpturatus), sequence (P56646 whole entry): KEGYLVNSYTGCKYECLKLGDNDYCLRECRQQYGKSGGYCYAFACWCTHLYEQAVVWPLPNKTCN
scFv 10FG2 (SEQ. ID. NO: 1), sequence (scFv): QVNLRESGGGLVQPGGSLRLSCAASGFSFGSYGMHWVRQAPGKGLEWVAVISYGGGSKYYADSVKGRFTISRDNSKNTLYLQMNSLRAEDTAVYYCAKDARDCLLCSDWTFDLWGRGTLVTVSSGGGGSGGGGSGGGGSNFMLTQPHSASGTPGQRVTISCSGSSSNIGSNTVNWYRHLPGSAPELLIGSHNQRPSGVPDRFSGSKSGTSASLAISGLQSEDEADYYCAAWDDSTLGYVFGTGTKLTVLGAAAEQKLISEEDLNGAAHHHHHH

scFv 10FG2 (SEQ. ID. NO: 1)
Survivors/Total, mixing test, 2 LD50, molar ratio toxin:scFv 1:5 (survivors of 6 mice) [1]: 6
Survivors/Total, mixing test, 3 LD50, molar ratio toxin:scFv 1:3.3 (survivors of 6 mice) [1]: 6
Survivors/Total, mixing test, 4 LD50, molar ratio toxin:scFv 1:2.5 (survivors of 6 mice) [1]: 6
Survivors/Total, mixing test, 5 LD50, molar ratio toxin:scFv 1:2 (survivors of 6 mice) [1]: 6
Survivors/total, mice injected with venom premixed with scFv, 2 LD50, molar ratio toxin:scFv 1:10 (survivors of 6 mice) [1]: 6
Kd [2]: 1.1 nM
TR (min), residence time [2]: 63 min
koff [2]: 0.000261 s⁻¹
kon [2]: 237000 M⁻¹ s⁻¹
Kd [3]: 1.84 nM
TR (min), residence time [3]: 49 min
koff [3]: 0.00034 s⁻¹
kon [3]: 185000 M⁻¹ s⁻¹

— US20240092879A1
